Experimental data from patent US20250066450A1 (LASK PHARMA, published 2025).

Biological target: T1, BMP10 (UniProt O95393 317-424)
T1 sequence (looked up): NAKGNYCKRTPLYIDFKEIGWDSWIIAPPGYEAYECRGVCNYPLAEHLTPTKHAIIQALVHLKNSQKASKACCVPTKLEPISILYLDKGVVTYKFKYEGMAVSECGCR
Test: Biacore (SPR); Fc fusion captured with anti-Fc antibody, ligand injected (FIG. 3B)
Description: A Biacore™-based binding assay was used to compare ligand binding selectivity of the ALK6 variant-Fc dimeric complex (e.g., SEQ ID NO: 46) described above with that of ALK6 wt-Fc complexes (SEQ ID NO: 49). The Fc dimeric complexes were independently captured onto the system using an anti-Fe antibody. Ligands were injected and allowed to flow over the captured receptor protein.

B1: ALK6-Fc fusion polypeptide (SEQ ID NO: 89) (Fc fusion)
chain: KKEDGESTAPTPRPKVLRCYCSGHCPEDSVNNICSTDGYCFTMIEEDDSGLPVVTSGCLKLEGSDFQCRDTPIPHQRRSIECCTERNECNKDLHPTLPPVVIGPFFDGSIRTGGGGSGGGGSGGGGSGGGGSTHTCPPCPAPEAAGGPSVFLFPPKPKDTLMISRTPEVTCVVVDVSHEDPEVKFNWYVDGVEVHNAKTKPREEQYNSTYRVVSVLTVLHQDWLNGKEYKCKVSNKALPAPIEKTISKAKGQPREPQVYTLPPSREEMTKNQVSLTCLVKGFYPSDIAVEWESNGQPENNYKTTPPVLDSDGSFFLYSKLTVDKSRWQQGNVFSCSVMHEALHNHYTQKSLSLSPG
Does B1 bind?
Result: no binding
